Data taken from the supplement of paper PMC10567573.
± gives the standard deviation.

Assay: protein stability index of a GFP-peptide fusion (GPS, HEK-293T) (PSI 1-6); higher = more stable
[1] = treatment: DMSO, c terminus: a fixed tail appended
[2] = treatment: MLN4924 1 uM, 8 h, c terminus: a fixed tail appended
[3] = treatment: DMSO, c terminus: native
[4] = treatment: MLN4924 1 uM, 8 h, c terminus: native
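Note: 24-mer peptide tiles fused after GFP, lentivirally expressed, FACS-sorted into six equal bins by GFP/DsRed ratio, decoded by Illumina sequencing, PSI is the read-weighted mean bin number.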

Sequence | protein stability index [1] | protein stability index [2] | protein stability index [3] | protein stability index [4]
PNLASDSDLSRRSSSTMSKSEYME [KCNA1] | 5.16 ± 0.27 | 5.22 ± 0.16 | – | –
PNLVNLIEVFRRKRKMHLVFEYCD [CDKL4] | 2.06 ± 0.64 | 2.07 ± 0.3 | – | –
PNRVLAPEQSLKKTKTSEYPIIFV [SPANXN3] | 2.22 ± 0.17 | 2.12 ± 0.34 | – | –
PNTLYEGGYFKAHIKFPIDYPYSP [UBE2R2] | 2.26 ± 0.13 | 2.21 ± 0.27 | – | –
PNYTMEGERPEEGVAGGLNRNQGL [TCF25] | 5.22 ± 0.15 | 5.22 ± 0.37 | – | –
PPEPLSQVSMWDQRWQDHQPLLPI [APBB1IP] | 2.76 ± 0.75 | 3.72 ± 1.1 | – | –
PPITEVESQVFSEKLATDTSTFEA [ZNF232] | 5.33 ± 0.2 | 5.26 ± 0.083 | – | –
PPPPPPHNSGPPPPPARGRGAPPP [WASL] | 5.14 ± 0.2 | 5.19 ± 0.16 | – | –
PPRGRSEAPDSLNGPLGPSEASIA [SMG5] | 5.07 ± 0.27 | 5.12 ± 0.14 | – | –
PPVLSFRLVHTTAIEHFQPNADLL [FCHO1] | 2.54 ± 0.15 | 2.17 ± 0.25 | – | –
PQAPPASRDEAALPELLLGALPVG [RETREG3] | 4.64 ± 0.087 | 4.67 ± 0.16 | – | –
PQDRYKAVWLIFFMLGLGTLLPWN [SLC29A1] | 3 ± 0.27 | 3.29 ± 0.37 | – | –
PQEKLWQQLRRGRYVEFNLLYDRG [CPOX] | 2.56 ± 0.11 | 2.55 ± 0.42 | – | –
PQGLFRGGKSGELEQEEERLSKEW [CHGA] | 5.19 ± 0.39 | 5.42 ± 0.19 | – | –
PRETLCTELVLSDCMLSEEGATLL [LRRC45] | 3.65 ± 0.2 | 3.83 ± 0.11 | – | –
PRMCRYVRERDRLGNEYPKLHYPE [CDC25A] | 3.08 ± 0.12 | 3.15 ± 0.34 | – | –
PRQADHDDHECCERVVINISGLRF [KCNA1] | 3.1 ± 0.086 | 3.33 ± 0.27 | – | –
PSLAVNLADPYRSLKAPGARGPGP [JUNB] | 4.01 ± 0.29 | 3.83 ± 0.17 | – | –
PSLQHLCRMSIRRVMPTQEVQELP [WSB1] | 3.34 ± 0.43 | 2.8 ± 0.35 | – | –
PSPPPGSHYTSPSENMWNTGSTYN [CARM1] | 3.8 ± 0.43 | 3.81 ± 0.23 | – | –
PSWNGSLKQLLTETDVWFSKQRKD [GMCL1] | 3.27 ± 0.049 | 3.29 ± 0.43 | – | –
PTICMAYLMKTKQFRLKEAFDYIK [DUSP5] | 2.27 ± 0.47 | 2.54 ± 0.31 | – | –

Sequence | protein stability index [1] | protein stability index [2] | protein stability index [3] | protein stability index [4]
PTTGYRRLLRFSSQIHNNGQSDFR [LOXL2] | 3.03 ± 0.37 | 3.22 ± 0.31 | – | –
PVAAATAAEGEGSPPAVAAVAGPP [ANKRD17] | 5.54 ± 0.19 | 5.54 ± 0.094 | – | –
PVEEPEPKPDRLLVLKVLWNDFLM [SLC19A2] | 2.21 ± 0.2 | 2.17 ± 0.19 | – | –
PVELYTAFQHTPTSITLTASRVSK [KMT2E] | 3.63 ± 0.095 | 3.71 ± 0.13 | – | –
PVSKPGALRRSLSRSMSQEAQRG [TCAP] | – | – | 3.19 ± 0.23 | 3.2 ± 0.37
PWKEETFLVLQSLLERQVEMTPEK [FANCE] | 3 ± 0.22 | 3.08 ± 0.27 | – | –
QAGGEGAGGELGISLNMCLLGALV [PBXIP1] | 2.92 ± 0.65 | 2.23 ± 0.33 | – | –
QALRQMNEGAIDCVNYEGQSAYDV [DLC1] | 4.41 ± 0.22 | 4.39 ± 0.1 | – | –
QDGVSCLNIVERYDPKENKWTRVA [KLHL20] | 3.98 ± 0.28 | 4.08 ± 0.21 | – | –
QDSPGPHEALSRLWELCHLWLRPE [ZNF396] | 2.33 ± 0.14 | 2.15 ± 0.079 | – | –
QFSLMLCAFVGALGGAAFLGTAIF [SPNS1] | 2.81 ± 0.47 | 2.47 ± 0.41 | – | –
QHLKYKEHPEALSCLLLQLRREKP [INTS3] | 2.68 ± 0.16 | 3 ± 0.32 | – | –
QILLEWCRSKTLGYQHVDLQNFSS [SMTNL2] | 2.72 ± 0.56 | 2.49 ± 0.43 | – | –
QIQRISLNTLTLNVKSEKVYTRHG [FLOT1] | 2.6 ± 0.14 | 3.01 ± 0.25 | – | –
QKDLIMKVENLTLKNHFQSVLEQL [TAF7L] | 2.66 ± 0.2 | 2.4 ± 0.29 | – | –
QKITAIITFPSLESCEEKNQLILT [WDR41] | 2.29 ± 0.16 | 2.22 ± 0.26 | – | –
QKRQQLSEDTLTIHGLPTEGYQAL [C22orf31] | 3.91 ± 0.12 | 3.92 ± 0.096 | – | –
QKVATLEKRNRQLRERVKKVKRSL [CCDC3] | 4.08 ± 0.2 | 4.89 ± 0.11 | – | –
QLDIASQSLDQEILLKVKTEIEEE [BCL2L13] | 5.21 ± 0.37 | 5.09 ± 0.21 | – | –
QLLSERFGRGSRTVDLELELQIEL [ARFIP2] | 2.58 ± 0.46 | 2.99 ± 0.94 | – | –
QLQVESNSSQLLLRRHAGLLDGLA [SCARA5] | 2.68 ± 0.26 | 2.9 ± 0.17 | – | –
QLSPSPTPASQSPKKPPAKDPLAD [SNAP91] | 5.49 ± 0.26 | 5.53 ± 0.29 | – | –

Sequence | protein stability index [1] | protein stability index [2] | protein stability index [3] | protein stability index [4]
QLSRDSTLGGKAFHITNDEPIPFW [NSDHL] | 2.89 ± 0.18 | 3.07 ± 0.55 | – | –
QLTKASLKPRGCSKPPWRPPGGKL [SPACA9] | 2.83 ± 0.29 | 2.92 ± 0.079 | – | –
QLTKELPLSPAFFGEDGIFRHDRL [PBXIP1] | 3.07 ± 0.19 | 3.01 ± 0.33 | – | –
QNPPVIKSSGRFLWIKFFAAGELE [NETO1] | 2.57 ± 0.53 | 2.11 ± 0.19 | – | –
QPGLLHLQSCGDLHTFTPAGRPRA [FAM189A2] | 5.66 ± 0.44 | 5.53 ± 0.18 | – | –
QPILQIDNARLAADDFRTKYEHEL [KRT16] | 4.6 ± 0.2 | 4.31 ± 0.45 | – | –
QPKCDNTARAHPAKARDLYKGRQL [SMOC2] | 4.26 ± 0.17 | 4.35 ± 0.19 | – | –
QPLADEGPPGRSIGGAAPSLGALD [SERTAD1] | 5.19 ± 0.24 | 5.32 ± 0.15 | – | –
QPQDRNQALGTHRPVNKLAELQCE [RASAL3] | 4.77 ± 0.37 | 4.88 ± 0.25 | – | –
QQAALPRLSRRMASQHSYPLNRFS [CBY2] | 3.38 ± 0.31 | 3.45 ± 0.31 | – | –
QQKKDLEILHQQNIHQLQNRLSEL [SASS6] | 3.96 ± 0.21 | 4.13 ± 0.2 | – | –
QQQHVSCQVFPERLAQGNPQQGFF [ATP23] | 3.5 ± 0.34 | 3.28 ± 0.39 | – | –
QQTPVGTPKDKRVSNTPLRTVDGS [PALM] | 5.07 ± 0.13 | 5.03 ± 0.15 | – | –
QQVCQWLLWATNEFSLVNVNLQRF [ETS2] | 3.01 ± 0.23 | 2.94 ± 0.42 | – | –
QRELEIPEQQVDMHDMLLEELAPV [ZNF449] | 5.22 ± 0.26 | 5.12 ± 0.21 | – | –
QRIHAAERLCMGVDCTEIFGGNPR [ZNF263] | 3.36 ± 0.27 | 3.38 ± 0.31 | – | –
QRINTYVFVGNQLIPQPLDSEEDE [PCMTD1] | 4.32 ± 0.25 | 4.37 ± 0.15 | – | –
QRITKQLEKWMQKNVEENLYSSSL [GLT8D2] | 2.89 ± 0.28 | 3.03 ± 0.21 | – | –
QRMRVPEKLKVAPPNADLEQGFQE [MFF] | 4.82 ± 0.19 | 4.74 ± 0.092 | – | –
QSPGQPVQGGSEAWGPGTLAAAPE [TEX19] | 5.08 ± 0.37 | 5.11 ± 0.24 | – | –
QSSNLFRHQRRHNAEKLLNVVKV [ZNF24] | – | – | 1.84 ± 0.38 | 2.11 ± 0.26
